According to US20110166062A1 (INDIANA UNIVERSITY RESEARCH AND TECHNOLOGY, published 2011):
Bridges are numbered along the chain shown (N, C = ends). Primed or numbered codes have the meaning given here. Where no end group is shown, it is not given here. [ ]: non-standard residue; d: D form. PEG 40 kDa″ = polyethylene glycol of 40 kDa covalently attached to the side chain; Aib = CC(C)(N)C(=O)O

T1: GIP receptor (UniProt P48546 22-466)
T1 sequence (looked up): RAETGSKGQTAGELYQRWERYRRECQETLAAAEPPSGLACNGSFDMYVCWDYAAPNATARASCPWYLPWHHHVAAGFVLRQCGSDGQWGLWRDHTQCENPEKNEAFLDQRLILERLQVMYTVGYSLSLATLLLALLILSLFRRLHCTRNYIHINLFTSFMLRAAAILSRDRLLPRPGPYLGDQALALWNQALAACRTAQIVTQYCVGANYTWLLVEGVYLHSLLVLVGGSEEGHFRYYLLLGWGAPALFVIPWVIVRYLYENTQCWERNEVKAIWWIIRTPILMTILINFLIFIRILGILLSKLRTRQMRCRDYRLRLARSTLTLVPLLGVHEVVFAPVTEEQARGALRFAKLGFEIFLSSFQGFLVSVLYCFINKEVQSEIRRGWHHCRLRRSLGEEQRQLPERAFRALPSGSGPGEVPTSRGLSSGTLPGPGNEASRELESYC

T2: GIP receptor (UniProt P48546 22-466)
T2 sequence (looked up): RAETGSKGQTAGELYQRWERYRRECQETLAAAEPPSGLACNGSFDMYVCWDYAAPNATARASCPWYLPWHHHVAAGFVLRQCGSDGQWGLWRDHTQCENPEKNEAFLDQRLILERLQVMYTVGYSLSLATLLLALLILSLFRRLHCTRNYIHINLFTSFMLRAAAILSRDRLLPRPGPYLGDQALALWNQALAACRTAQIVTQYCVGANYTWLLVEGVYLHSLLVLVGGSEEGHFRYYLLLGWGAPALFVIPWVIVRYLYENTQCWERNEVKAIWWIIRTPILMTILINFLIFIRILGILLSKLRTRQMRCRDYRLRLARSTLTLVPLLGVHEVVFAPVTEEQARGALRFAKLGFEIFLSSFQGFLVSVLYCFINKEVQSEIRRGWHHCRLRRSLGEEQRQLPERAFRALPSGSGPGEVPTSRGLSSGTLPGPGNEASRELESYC


What was measured:
Test in all cases: cell-based or functional assay
glucagon receptor [1] = target: glucagon receptor (UniProt P47871 26-477, limits assumed)
Target sequence in this assay (P47871 26-477 limits assumed): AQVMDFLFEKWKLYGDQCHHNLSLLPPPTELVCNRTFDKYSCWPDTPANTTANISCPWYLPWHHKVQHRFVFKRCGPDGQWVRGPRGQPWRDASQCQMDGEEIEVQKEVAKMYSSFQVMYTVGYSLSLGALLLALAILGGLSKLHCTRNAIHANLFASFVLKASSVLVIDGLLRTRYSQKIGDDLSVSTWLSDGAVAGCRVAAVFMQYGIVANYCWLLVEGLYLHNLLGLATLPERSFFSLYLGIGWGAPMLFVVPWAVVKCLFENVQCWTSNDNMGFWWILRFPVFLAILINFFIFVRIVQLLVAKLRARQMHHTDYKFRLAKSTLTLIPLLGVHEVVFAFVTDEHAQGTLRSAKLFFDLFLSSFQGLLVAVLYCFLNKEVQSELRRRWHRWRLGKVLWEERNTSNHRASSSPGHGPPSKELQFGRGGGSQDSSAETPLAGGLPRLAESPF

GIP receptor [2] = target: T1, GIP receptor
GLP-1 receptor [3] = target: GLP-1 receptor (UniProt P43220 24-463, limits assumed)
GIP receptor [4] = target: T2, GIP receptor; remark: listed apart in the source
GLP-1 receptor [5] = target: GLP-1 receptor (UniProt P43220 24-463, limits assumed); remark: listed apart in the source
glucagon receptor [6] = target: glucagon receptor (UniProt P47871 26-477, limits assumed); remark: listed apart in the source
Target sequence in this assay (P47871 26-477 limits assumed): as above

| Binder | EC50 (glucagon receptor [1]) | relative activity (glucagon receptor [1]) | EC50 (GIP receptor [2]) | relative activity (GIP receptor [2]) | EC50 (GLP-1 receptor [3]) | relative activity (GLP-1 receptor [3]) | EC50, nM; GIP Receptor (GIP receptor [4]) | relative activity; GIP Receptor (GIP receptor [4]) | EC50, nM; GLP-1 Receptor (GLP-1 receptor [5]) | relative activity; GLP-1 Receptor (GLP-1 receptor [5]) | EC50, nM; Glucagon Receptor (glucagon receptor [6]) | relative activity; Glucagon Receptor (glucagon receptor [6]) |
| --- | --- | --- | --- | --- | --- | --- | --- | --- | --- | --- | --- | --- |
| Y[Aib]QGTFTSDYSIYLDEEAVRLFVNWLLAGGPSSGAPPPS-NH2 (N-terminus assumed; SMILES CC[C@H](C)[C@H](NC(=O)[C@H](CO)NC(=O)[C@H](Cc1ccc(O)cc1)NC(=O)[C@H](CC(=O)O)NC(=O)[C@H](CO)NC(=O)[C@@H](NC(=O)[C@H](Cc1ccccc1)NC(=O)[C@@H](NC(=O)CNC(=O)[C@H](CCC(N)=O)NC(=O)C(C)(C)NC(=O)[C@@H](N)Cc1ccc(O)cc1)[C@@H](C)O)[C@@H](C)O)C(=O)N[C@@H](Cc1ccc(O)cc1)C(=O)N[C@@H](CC(C)C)C(=O)N[C@@H](CC(=O)O)C(=O)N[C@@H](CCC(=O)O)C(=O)N[C@@H](CCC(=O)O)C(=O)N[C@@H](C)C(=O)N[C@H](C(=O)N[C@@H](CCCNC(=N)N)C(=O)N[C@@H](CC(C)C)C(=O)N[C@@H](Cc1ccccc1)C(=O)N[C@H](C(=O)N[C@@H](CC(N)=O)C(=O)N[C@@H](Cc1c[nH]c2ccccc12)C(=O)N[C@@H](CC(C)C)C(=O)N[C@@H](CC(C)C)C(=O)N[C@@H](C)C(=O)NCC(=O)NCC(=O)N1CCC[C@H]1C(=O)N[C@@H](CO)C(=O)N[C@@H](CO)C(=O)NCC(=O)N[C@@H](C)C(=O)N1CCC[C@H]1C(=O)N1CCC[C@H]1C(=O)N1CCC[C@H]1C(=O)N[C@@H](CO)C(N)=O)C(C)C)C(C)C) [mt-201] | 26.7 nM | 0.24% | 0.072 nM | 44.4% | 0.012 nM | 192% |  |  |  |  |  |  |
| Y[Aib]EGTFTSDYSIYLDEQAAKEFVNWLLAGKGKKNWLKHNITQC-NH2 (lactam 16-20) [mt-206] | 331 nM | 0.01% | 0.115 nM |  | 0.095 nM |  |  |  |  |  |  |  |
| Y[Aib]QGTFISDYSIYLDKQAA[Aib]EFVNWLLAGGPSSGAPPPSK-NH2 (N-terminus assumed; SMILES CC[C@H](C)[C@H](NC(=O)[C@H](CO)NC(=O)[C@H](Cc1ccc(O)cc1)NC(=O)[C@H](CC(=O)O)NC(=O)[C@H](CO)NC(=O)[C@@H](NC(=O)[C@H](Cc1ccccc1)NC(=O)[C@@H](NC(=O)CNC(=O)[C@H](CCC(N)=O)NC(=O)C(C)(C)NC(=O)[C@@H](N)Cc1ccc(O)cc1)[C@@H](C)O)[C@@H](C)CC)C(=O)N[C@@H](Cc1ccc(O)cc1)C(=O)N[C@@H](CC(C)C)C(=O)N[C@@H](CC(=O)O)C(=O)N[C@@H](CCCCN)C(=O)N[C@@H](CCC(N)=O)C(=O)N[C@@H](C)C(=O)N[C@@H](C)C(=O)NC(C)(C)C(=O)N[C@@H](CCC(=O)O)C(=O)N[C@@H](Cc1ccccc1)C(=O)N[C@H](C(=O)N[C@@H](CC(N)=O)C(=O)N[C@@H](Cc1c[nH]c2ccccc12)C(=O)N[C@@H](CC(C)C)C(=O)N[C@@H](CC(C)C)C(=O)N[C@@H](C)C(=O)NCC(=O)NCC(=O)N1CCC[C@H]1C(=O)N[C@@H](CO)C(=O)N[C@@H](CO)C(=O)NCC(=O)N[C@@H](C)C(=O)N1CCC[C@H]1C(=O)N1CCC[C@H]1C(=O)N1CCC[C@H]1C(=O)N[C@@H](CO)C(=O)N[C@@H](CCCCN)C(N)=O)C(C)C) [mt-357] |  |  |  |  |  |  | 0.0066 nM | 206% | 1.25 nM | 0.86% | 0.042 nM | 261% |
| Y[Aib]QGTFTSDYSIYLDKQAA[Aib]EFVNWLMNGGPSSGAPPPSK-NH2 (N-terminus assumed; SMILES CC[C@H](C)[C@H](NC(=O)[C@H](CO)NC(=O)[C@H](Cc1ccc(O)cc1)NC(=O)[C@H](CC(=O)O)NC(=O)[C@H](CO)NC(=O)[C@@H](NC(=O)[C@H](Cc1ccccc1)NC(=O)[C@@H](NC(=O)CNC(=O)[C@H](CCC(N)=O)NC(=O)C(C)(C)NC(=O)[C@@H](N)Cc1ccc(O)cc1)[C@@H](C)O)[C@@H](C)O)C(=O)N[C@@H](Cc1ccc(O)cc1)C(=O)N[C@@H](CC(C)C)C(=O)N[C@@H](CC(=O)O)C(=O)N[C@@H](CCCCN)C(=O)N[C@@H](CCC(N)=O)C(=O)N[C@@H](C)C(=O)N[C@@H](C)C(=O)NC(C)(C)C(=O)N[C@@H](CCC(=O)O)C(=O)N[C@@H](Cc1ccccc1)C(=O)N[C@H](C(=O)N[C@@H](CC(N)=O)C(=O)N[C@@H](Cc1c[nH]c2ccccc12)C(=O)N[C@@H](CC(C)C)C(=O)N[C@@H](CCSC)C(=O)N[C@@H](CC(N)=O)C(=O)NCC(=O)NCC(=O)N1CCC[C@H]1C(=O)N[C@@H](CO)C(=O)N[C@@H](CO)C(=O)NCC(=O)N[C@@H](C)C(=O)N1CCC[C@H]1C(=O)N1CCC[C@H]1C(=O)N1CCC[C@H]1C(=O)N[C@@H](CO)C(=O)N[C@@H](CCCCN)C(N)=O)C(C)C) [mt-356] |  |  |  |  |  |  | 0.053 nM | 25.7% | 0.0048 nM | 224% | 0.0869 nM | 126% |
| Y[Aib]QGTFTSEYSKYLDEQAAKEFVNWLLAGGPSSGAPPPSC-NH2 (lactam 9-12, 16-20; not fully specified) [mt-209] | 4.66 nM | 0.9% | 1.05 nM | 1.42% | 2.34 nM | 1.33% |  |  |  |  |  |  |
| Y[Aib]EGTFTSDYSIYLDEQAAKEFVNWLLAGKGKKNWLKHNITQC(PEG 40 kDa″)-NH2 (lactam 16-20) [mt-208] | 448 nM | 0.01% | 0.313 nM |  | 0.262 nM |  |  |  |  |  |  |  |
| Y[Aib]QGTFTSDYSIYLDEQAAKEFVNWLLAGKGKKNWLKHNITQC-NH2 (lactam 16-20) [mt-207] | 3.2 nM | 1.31% | 0.622 nM | 2.41% | 0.073 nM | 42.5% |  |  |  |  |  |  |
| YXEGTFTSDYSIYLDKQAAXEFVNWLLAGGPSSGAPPPSKC (C-terminal amide; acylation at position 40 of each monomer, no spacer; monomers linked via a PEG at C-terminal Cys residues) [mt-376] |  |  |  |  |  |  | 0.0068 nM |  | 0.0106 nM |  |  |  |
| YXEGTFTSDYSIYLDKQAAXEFVNWLLAGGPSSGAPPPSKC (C-terminal amide; acylation at position 40 of each monomer, no spacer; monomers linked via a PEG at C-terminal Cys residues) [mt-377] |  |  |  |  |  |  | 0.0031 nM |  | 0.0076 nM |  |  |  |
